# Data from the DeepSol protein solubility set.
# Assay: soluble on expression in E. coli; label from the status in PepcDB or PDB records
row,Sequence,soluble on expression in E. coli
1,MSLRLSKTLCMAILAGSTLLAPNALMAMGGPSRVKIDWQIQGQMGMIKMNPYGLSPLTAIIMNNGYVLSDIKKNQMVKLFLNNVNSKMAKTYGGIPIFGLYPSYSKGKVSYTKTANGKSQKVIDEIYKITTPWASIEPSGRTDQRGTLFENVKVLKMDPKFSDRLYLVNNAPGKQSGKDSQSVWNNLVGGAMEWDENSNVFIIDTKGEIRWYYDNNKLMNWGNIYNRGIMISFRQNKDGALTWGFGQRYVKYDCLGREIFNRKLPAVYIDFSHAMDNMQNGHYFFNKYFASLRPDSKHVRTVCDTIIEVDENGNVVDDWRLYKILDPYRSTIIKTLDQSAVCLNIDASKVGKTLSDEELAKMDESDKFGDIAGIGRNWAHAYKGWNKEFQKYLLQPVDKNGNEWFYPVTSLTQYEPDKDSIMVYSATLEWLLILVKVSLGEPKPKIDEFNWGAKEPSVQIQFSGSGTDYQAMPFSVDQAFNPKEGHHHHHH,not soluble
2,MSLRMQDIERKVIEWLDQHSAKAIRLLKRLIGEKSTLGSEFNAQAVVLEKLRQFHMDIDVWEPSIKQLKQHPYFKSNRSDFHESPNIVAKKTGAGGGRSLILNGHIDVVPEGSVKDWKYEPYQAVEENGKIYGRGSTDMKGGNTALLFALEALHACDVKLKGDVLFQSVVDEECGGAGTLSAIMRGYRADGALIPEPTNMKLFIKQQGSMWFRITVKGLSAHGGTRYEGVSAIEKSMHVITAIQELEKVRNARISDPLYDNIPIPVPVNIGTISGGAWPSSVADRVVIEGRCGIAPHEKPEAVKLELENWLKDLEYHDEWFKRHPVQVEWFGAQWLPNDLPDDHPLISVLQSAYQKMKQTEPIIEASPWGTDGGLLYHAGDTPVIVFGPGETKTAHQANEYIEVEAMIESAKIIALFVMDWCGLHTDGEGHHHHHH,soluble
3,MSLRPNHAAQSLRSRTSKTIGCMFSDVANPLYARAFRALEEHFRREGYMLLLANGLNDAEREIDIIQTFQLRGMDGVILAPGNERHPGVLDAVRRLSMPAVIYDRDLAVDADAVLFDHVAGVKAAIHHLVELGHTRIALALWQVKSRPVRRRIEGYKAAFKAAGLPVPDLILQEPTPTSSAFDDVTRLLQLPDPPTAFLAQGTHTLTSTLRAIAKQGLRVPEDVSVIGIGDTDFAQTYDPPLTVLRTPTDEVAAHAVEMLLSRLAAKGDASLSPRKALIQFDLILRESCAPVAREGHHHHHH,soluble
4,MSLRPPQTLSRGWGDDITWVQTYEEGLFYAQKSKKPLMVIHHLEDCQYSQALKKVFAQNEEIQEMAQNKFIMLNLMHETTDKNLSPDGQYVPRIMFVDPSLTVRADIAGRYSNRLYTYEPRDLPLLIENMKKALRLIQSELEGHHHHHH,soluble
5,MSLRPRAQTAGTWPRVCIESVTPSVDNGRFPVKRTVGDRICVEADAFCDGHDRIAVAVLWRPADAKAWASAPMRALGNDRWRAEFPLERIGTYEFRVEAWRDVFATLHADLEKKRAANTVLPVDVQEAVAAVQAAQARSDGALAERLQTVLTRIGAQSEPLQQLAIVLEPDTAQAMALADDKPFRSEYPVTFRVESERRAAHFSSWYELFPRSQSGDASRHGTFDDVIKRLPHIRAMNFDVLYMPPIHPIGLNNRKGRNNSVTAVEGEPGSPYAIGATDGGHTEVHAELGGLEGFRRLIEAARAQGLEVALDFAIQCAPDHPWLKEHKDWFTWRADGSIPYAENPPKKYQDIVNVDFYASGAVPDLWNTLRDAVLFWVNEGVTLFRVDNPHTKPFPFWEWLIADVRGRRPDVVFLSEAFTRPKMMYRLAKCGFSQSYTYFTWRNHKHELRAYVEELNDGVPRECFRPHFFVNTPDINPLFLQTSGRNGHLIRAALATTLSGLWGMYQGFELCEATPLAPGKEEYLDSEKFQLRAWPERVPGDIVEEITRFNQLRRMHPELQSHLGTRFYQAHNDQVLYYGKFLDAGYLSRSRSMVLVAINLDPHAGQDADIEIPLWELGLPDHASVAVEDLWDGHRFAWHGKYQHIRLEATRPFALWRIRAGEGHHHHHH,soluble
6,MSLRQKQKEGGTYSPQDAEIIDTKLKLDQLITVADLELKDERLTRMTVMAATEKFQIMKKELPKFLQDLSSTDADLPWNRAKNRFPNIKPYNNNRVKLIADASVPGSDYINASYISGYLCPNEFIATQGPLPGTVGDFWRMVWETRAKTLVMLTQCFEKGRIRCHQYWPEDNKPVTVFGDIVITKLMEDVQIDWTIRDLKIERHGDCMTVRQCNFTAWPEHGVPENSAPLIHFVKLVRASRAHDTTPMIVHCSAGVGRTGVFIALDHLTQHINDHDFVDIYGLVAELRSERMCMVQNLAQYIFLHQCILDLLSNKGSNQPICFVNYSEGHHHHHH,soluble
7,MSLRSTAVLALLLCAGQVFALPVNSPMTKGDTKVMKCVLEVISDSLSKPSPMPVSPECLETLQGDERILSILRHQNLLKELQDLALQGAKERAQQQQEQQHSSFEDELSEVFENQSPDAKHRDAAAEVPSRDTMEKRKDSDKGQQDGFEATTEGPRPQAFPEPNEGHHHHHH,soluble
8,MSLRTEFGRLQEHPIVDFKRGKEVTIYLNGKPVKAYEGETVAAALYAAGVRVFSRSFRWHRPRGFFCAIGKCSACMMEVDGIPNVRTCKVYVRDGMQVRTQSGMPDAEKDVFSILDDVIDKVFPHGSHYTKFTTSKKAREFMVKRMRKFTGFGNPPKAVFQGRAELEEIETDVLVIGGGPGGMSAAINAGKYGAKVLLVDENPFLGGQLVKQTHRFFGSAKERAGTRGIKIAGILEEELNSIENVEVRRETRVFGIYNGEAGAYQRLNDDEGKLLRIKAKKIVVATGAYERTLIFENNDLPGVYGAGGVQTLMNVYGIKPGNMGLIVGSGNVGLILTYQLMQAGVNVAAIVEAMPRIGGYFVHAAKVRRLGVPIYVRHTILKAIGRKSVEGAVIAQLDDRWQPIPGTEKEIKCDFICVAVGLSPTHELLYQAGCEMKFVPELGGIVPLRTRFNETSVKGLYVAGDVAGIEEATAAIMEGRIAGIHAAVTLGYGGEEAKKELDEAVKEIEEFRAGPFGERIVCGLEKCTLESEGHHHHHH,not soluble
9,MSLRTILVTGASGFVGGALCRQLATLGSFAIRAASRDLGGASVAGIQAVTVADLSATTDWARALSGVDLVVHAAARVHVMKETASDSLAEFRRVNVDGTLNLARQAAAAGVRRFIFISSIKVNGESSQPGQPLRADDSPAPQDAYGVSKHEAEQGLRQLAAATGMEVVVIRPVLVYGPGVKANFHSMMRWLQRGVPLPFGAVCNRRSLVSLANLVDLVVTCIDHPRAANQTFLASDGDDVSLTQLLRALGLALGRPARLLPVPAGLLRGAVLLIGRRDLAQRLFGTLQVDIEKNRQLLGWYPPCTLEQGLNMTARSFLGARREGHHHHHH,soluble
10,MSLRTYLPGESEEVLSEGWTLTLTPADACETPSDIPASLESLHVSVPGTVGQALEAAGKFDRLAPVALNDRDAWYRLTMISDARERAILRFDGLSTIAEIFFNGELIAASQSMFERLEVPVQMTGADELSICFRALAPRLEKPGPRARWRPQMMNTQGLRLIRTTALGYMPGWCPEIHSAGPWRPISLIKQDGVLCTLRSSLDDTGTGKVSIVLQANRDIQSARLICAGYSINLSKAEDGKLLGELIIPGVEIWWPHTHGRPALHEVVLELDGNQHRLGRTGFRQVEIDHGEDGNGFGLKVNGQPVFCRGAVWTTADIVRLPGTRPDYEPWLKKAAEAGMNMIRVGGTMAYETPEFFALCDELGIMVWQDAMLANFDYPAKDDGLRQHIVMEIEQLLESTALSPSFAIFCGGSEMYQQGAMLGLPEQIWKGTLTEEILPELVAEKRPDAAYVANSPSGGALPFFPNAGVGHYYGVGAYCRPLEDARRADLRFAAECLAFANIPEQETLDRYLPGVAVHDPRWKARTPRDRGASWDFEDVRDHYLKLLYEAEPDVLRREDGALYLDMSRAATAEVMEATFAEWRRSGSSCQGALVWTLQDLVPGAGWGIIDAAGRPKSVWHALKRAFRPVQVSLSDEGTNGLDIHILNDTGDSLNTMLELTCLREGLQPVVHAKRPLALLPRESQTIAATDLFGAFFDTTYAYRFGPPSHDVTIARLRDIATGHVIADAFHFPLGRKKALHAANLQVAISETNGHWSLEIGTDRLAQSVHITAEGYRACESWFHLGPGEARKIGLLPETATTEAPPSGEVVSLGSSRRFSEGHHHHHH,not soluble
